{"source": "patent US8940501", "target": "receptor of interferon alpha (printed only as 'receptor'), on Daudi cells", "experiment": "cell-based or functional assay", "data": [{"substance": "commercially available IFNα (from UniProt P01563 24-188) (ligand)", "values": [{"measurement": "IC50 (pg/mL), inhibition of Daudi cell proliferation", "result": 15.5, "unit": "pg/mL"}]}]}
